Usually Kd stands for the free concentration of one partner at which half of the binding sites on the other are occupied at equilibrium, for simple one-to-one binding. Higher therefore signals a looser complex.

The target in assay [1] is HIV-1 gp41 epitope peptide with linker, conjugated to 17-base DNA (peptide-linker-DNA) and hybridized to the modular oligonucleotide probe (HIV-1). Briefly: fluorescent modular DNA probe with two gp41 peptide copies, titrated with antibody; two-state fit.
The target is the same in assay [2]. Briefly: electrochemical modular probe (methylene blue, square wave voltammetry) on a gold electrode, antibody titration in 80% whole blood [panel c (lower].

Consider “antibody 2F5 specific for gp41 (Polymun Scientific)”, for which the Kd was determined as 4 nM in assay [1] and 33 nM in assay [2].
